The text below walks through data of patent US20210340548A1.

B1: TetR (I194T, 1-206)-CIB1 (-NLS) fusion construct as released from the TetR (I194T, 1-206)-CIB1 (-NLS)-T2A-Cry2 PHR (L348F)-p65AD-NLSx2 fusion construct (protein, part only)
chain: MARLDKSKVINSALELLNEVGIEGLTTRKLAQKLGVEQPTLYWHVKNKRALLDALAIEMLDRHHTHFCPLEGESWQDFLRNNAKSFRCALLSHRDGAKVHLGTRPTEKQYETLENQLAFLCQQGFSLENALYALSAVGHFTLGCVLEDQEHQVAKEERETPTTDSMPPLLRQAIELFDHQGAEPAFLFGLELITCGLEKQLKCESGSPKKKHMEFNGAIGGDLLLNFPDMSVLERQRAHLKYLNPTFDSPLAGFFADSSMITGGEMDSYLSTAGLNLPMMYGETTVEGDSRLSISPETTLGTGNFKAAKFDTETKDCNEAAKKMTMNRDDLVEEGEEEKSKITEQNNGSTKSIKKMKHKAKKEENNFSNDSSKVTKELEKTDYI
modifications: residual T2A residues at C-terminus
B2: rTetR (I194T, V16 mutation, 1-206)-CIB1 (-NLS) from the T2A construct (protein, part only; not given: Leftover T2A residues, part only)
chain, part: MARLDKSKIINSALELLNGVGIEGLTTRKLAQKLGVEQPTLYWHVKNKRALLDALPIEMLDRHHTHSCPLEGESWQDFLRNNAKSYRCALLSHRDGAKVHLGTRPTEKQYETLENQLAFLCQQGFSLENALYALSAVGHFTLGCVLEEQEHQVAKEERETPTTDSMPPLLKQAIELFDRQGAEPAFLFGLELITCGLEKQLKCESGSPKKKHMEFNGAIGGDLLLNFPDMSVLERQRAHLKYLNPTFDSPLAGFFADSSMITGGEMDSYLSTAGLNLPMMYGETTVEGDSRLSISPETTLGTGNFKAAKFDTETKDCNEAAKKMTMNRDDLVEEGEEEKSKITEQNNGSTKSIKKMKHKAKKEENNFSNDSSKVTKELEKTDYI
B3: rTetR (I194T, rtTA mutation, 1-206)-CIB1 (-NLS) from the T2A construct (protein, part only; not given: Leftover T2A residues, part only)
chain, part: MARLDKSKVINSALELLNEVGIEGLTTRKLAQKLGVEQPTLYWHVKNKRALLDALAIEMLDRHHTHFCPLKGESWQDFLRNNAKSFRCALLSHRNGAKVHSDTRPTEKQYETLENQLAFLCQQGFSLENALYALSAVGHFTLGCVLEDQEHQVAKEERETPTTDSMPPLLRQAIELFDHQGAEPAFLFGLELITCGLEKQLKCESGSPKKKHMEFNGAIGGDLLLNFPDMSVLERQRAHLKYLNPTFDSPLAGFFADSSMITGGEMDSYLSTAGLNLPMMYGETTVEGDSRLSISPETTLGTGNFKAAKFDTETKDCNEAAKKMTMNRDDLVEEGEEEKSKITEQNNGSTKSIKKMKHKAKKEENNFSNDSSKVTKELEKTDYI
B4: TetR (I194T, H100Y, 1-206)-CIB1 (-NLS) from the T2A construct (protein, part only)
chain: MARLDKSKVINSALELLNEVGIEGLTTRKLAQKLGVEQPTLYWHVKNKRALLDALAIEMLDRHHTHFCPLEGESWQDFLRNNAKSFRCALLSHRDGAKVYLGTRPTEKQYETLENQLAFLCQQGFSLENALYALSAVGHFTLGCVLEDQEHQVAKEERETPTTDSMPPLLRQAIELFDHQGAEPAFLFGLELITCGLEKQLKCESGSPKKKHMEFNGAIGGDLLLNFPDMSVLERQRAHLKYLNPTFDSPLAGFFADSSMITGGEMDSYLSTAGLNLPMMYGETTVEGDSRLSISPETTLGTGNFKAAKFDTETKDCNEAAKKMTMNRDDLVEEGEEEKSKITEQNNGSTKSIKKMKHKAKKEENNFSNDSSKVTKELEKTDYI
modifications: T2A residues at C-terminus
B5: rTetR (I194T, S2 mutation, 1-206)-CIB1 (-NLS) from the T2A construct (protein, part only; not given: Leftover T2A residues, part only)
chain, part: MARLDKSKVINSALELLNGVGIEGLTTRKLAQKLGVEQPTLYWHVKNKRALLDALPIEMLDRHHTHFCPLEGESWQDFLRNNAKSFRCALLSHRDGAKVHLGTRPTEKQYETLENQLAFLCQQGFSLENALYALSAVGHFTLGCVLEEQEHQVAKEERETPTTDSMPPLLRQAIELFDRQGAEPAFLFGLELITCGLEKQLKCESGSPKKKHMEFNGAIGGDLLLNFPDMSVLERQRAHLKYLNPTFDSPLAGFFADSSMITGGEMDSYLSTAGLNLPMMYGETTVEGDSRLSISPETTLGTGNFKAAKFDTETKDCNEAAKKMTMNRDDLVEEGEEEKSKITEQNNGSTKSIKKMKHKAKKEENNFSNDSSKVTKELEKTDYI
B6: rTetR (I194T, M2 mutation, 1-206)-CIB1 (-NLS) from the T2A construct (protein, part only; not given: Leftover T2A residues, part only)
chain, part: MARLDKSKVINGALELLNGVGIEGLTTRKLAQKLGVEQPTLYWHVKNKRALLDALPIEMLDRHHTHFCPLEGESWQDFLRNNAKSFRCALLSHRDGAKVHLGTRPTEKQYETLENQLAFLCQQGFSLENALYALSAVGHFTLGCVLEEQEHQVAKEERETPTTDSMPPLLRQAIELFDRQGAEPAFLFGLELITCGLEKQLKCESGSPKKKHMEFNGAIGGDLLLNFPDMSVLERQRAHLKYLNPTFDSPLAGFFADSSMITGGEMDSYLSTAGLNLPMMYGETTVEGDSRLSISPETTLGTGNFKAAKFDTETKDCNEAAKKMTMNRDDLVEEGEEEKSKITEQNNGSTKSIKKMKHKAKKEENNFSNDSSKVTKELEKTDYI
B7: rTetR (I194T, V10 mutation, 1-206)-CIB1 (-NLS) from the T2A construct (protein, part only; not given: Leftover T2A residues, part only)
chain, part: MARLDKSKVINSALELLNGVGIEGLTTRKLAQKLGVEQPTLYWHVKNKRALLDALPIEMLDRHHTHSCPLEGESWQDFLRNNAKSYRCALLSHRDGAKVHLGTRPTEKQYETLENQLAFLCQQGFSLENALYALSAVGHFTLGCVLEEQEHQVAKEERETPTTDSMPPLLKQAIELFDRQGAEPAFLFGLELITCGLEKQLKCESGSPKKKHMEFNGAIGGDLLLNFPDMSVLERQRAHLKYLNPTFDSPLAGFFADSSMITGGEMDSYLSTAGLNLPMMYGETTVEGDSRLSISPETTLGTGNFKAAKFDTETKDCNEAAKKMTMNRDDLVEEGEEEKSKITEQNNGSTKSIKKMKHKAKKEENNFSNDSSKVTKELEKTDYI

The experiment deals with Cry2 PHR (L348F)-p65AD-NLSx2 fusion construct as released from the TetR (I194T, 1-206)-CIB1 (-NLS)-T2A-Cry2 PHR (L348F)-p65AD-NLSx2 fusion construct. Briefly: cell-based or functional assay.
Cry2 PHR (L348F)-p65AD-NLSx2 fusion construct as released from the TetR (I194T, 1-206)-CIB1 (-NLS)-T2A-Cry2 PHR (L348F)-p65AD-NLSx2 fusion construct, sequence (Q96524 other isoform, or with tags, fused parts or gaps L348F I194T L348F L348F I194T L348F): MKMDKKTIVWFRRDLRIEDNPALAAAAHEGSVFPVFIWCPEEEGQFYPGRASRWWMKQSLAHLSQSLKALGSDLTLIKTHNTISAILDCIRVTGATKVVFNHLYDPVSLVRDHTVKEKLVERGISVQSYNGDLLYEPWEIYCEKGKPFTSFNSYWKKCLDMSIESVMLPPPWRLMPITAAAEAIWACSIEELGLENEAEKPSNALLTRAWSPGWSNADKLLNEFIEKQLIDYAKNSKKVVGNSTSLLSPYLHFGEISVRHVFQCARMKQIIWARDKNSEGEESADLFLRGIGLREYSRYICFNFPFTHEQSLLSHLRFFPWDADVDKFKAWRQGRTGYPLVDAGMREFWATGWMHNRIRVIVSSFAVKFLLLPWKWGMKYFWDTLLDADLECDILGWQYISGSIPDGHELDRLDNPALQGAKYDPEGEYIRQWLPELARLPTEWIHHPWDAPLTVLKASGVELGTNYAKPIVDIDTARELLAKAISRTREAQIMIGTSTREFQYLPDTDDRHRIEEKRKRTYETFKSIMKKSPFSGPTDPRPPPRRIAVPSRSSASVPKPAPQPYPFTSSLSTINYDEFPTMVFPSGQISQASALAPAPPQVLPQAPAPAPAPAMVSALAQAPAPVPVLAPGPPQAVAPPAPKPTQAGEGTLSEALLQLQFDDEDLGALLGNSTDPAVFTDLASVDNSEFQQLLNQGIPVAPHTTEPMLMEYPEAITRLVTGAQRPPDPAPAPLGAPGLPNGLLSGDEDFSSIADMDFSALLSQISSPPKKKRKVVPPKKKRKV
As for B1, the Average of the Light/Dark ratio, Dox 0 ng/mL amounted to 19; the Average of the Light/Dark ratio, Dox 0 ng/mL, 36 h light was 2780; the Average of the Light/Dark ratio, Dox 75 ng/mL came out at 1.1; the Average of the Light/Dark ratio, Dox 500 ng/mL, 36 h light was 0.2. In addition, the Light/Dark, Dox 0 ng/mL worked out at 36.2; the Light/Dark, Dox 0 ng/mL, 36 h light is 525; the Light/Dark, Dox 75 ng/mL was found to be 0.9; the Light/Dark, Dox 500 ng/mL, 36 h light was found to be 0.2. Also, the Ub-ELuc luciferase, Dark, Dox 0 ng/mL was determined as 4 relative; the Ub-ELuc luciferase, Dark, Dox 0 ng/mL, 36 h light came to 15.4 relative; the Ub-ELuc luciferase, Dark, Dox 75 ng/mL worked out at 0.1 relative; the Ub-ELuc luciferase, Dark, Dox 500 ng/mL, 36 h light came to 9.9 relative. The Ub-ELuc luciferase, Light, Dox 0 ng/mL was 76.7 relative; the Ub-ELuc luciferase, Light, Dox 0 ng/mL, 36 h light came to 8090 relative; the Ub-ELuc luciferase, Light, Dox 75 ng/mL turned out to be 0.1 relative; the Ub-ELuc luciferase, Light, Dox 500 ng/mL, 36 h light was determined as 1.8 relative.

As to B2, the Average of the Light/Dark ratio, Dox 0 ng/mL amounted to 1.5; the Average of the Light/Dark ratio, Dox 75 ng/mL turned out to be 15.8; the Light/Dark, Dox 0 ng/mL amounted to 1.6; the Light/Dark, Dox 75 ng/mL is 26.4. The Ub-ELuc luciferase, Dark, Dox 0 ng/mL is 0.2 relative; the Ub-ELuc luciferase, Dark, Dox 75 ng/mL is 5.9 relative; the Ub-ELuc luciferase, Light, Dox 0 ng/mL amounted to 0.3 relative; the Ub-ELuc luciferase, Light, Dox 75 ng/mL stood at 76.7 relative.

For the molecule B3, the Average of the Light/Dark ratio, Dox 0 ng/mL was 3.2; the Average of the Light/Dark ratio, Dox 75 ng/mL amounted to 22.5; the Light/Dark, Dox 0 ng/mL was 3.5; the Light/Dark, Dox 75 ng/mL was 3.4. In addition, the Ub-ELuc luciferase, Dark, Dox 0 ng/mL is 0.2 relative; the Ub-ELuc luciferase, Dark, Dox 75 ng/mL is 0.1 relative; the Ub-ELuc luciferase, Light, Dox 0 ng/mL was 0.5 relative; the Ub-ELuc luciferase, Light, Dox 75 ng/mL was determined as 0.4 relative.

Turning to B4, the Average of the Light/Dark ratio, Dox 0 ng/mL came to 19; the Average of the Light/Dark ratio, Dox 75 ng/mL was 19.4; the Light/Dark, Dox 0 ng/mL was found to be 30.6; the Light/Dark, Dox 75 ng/mL is 22.7. The Ub-ELuc luciferase, Dark, Dox 0 ng/mL is 2.6 relative; the Ub-ELuc luciferase, Dark, Dox 75 ng/mL amounted to 3.1 relative; the Ub-ELuc luciferase, Light, Dox 0 ng/mL turned out to be 58.1 relative; the Ub-ELuc luciferase, Light, Dox 75 ng/mL came out at 41.4 relative.

Regarding B5, the Average of the Light/Dark ratio, Dox 0 ng/mL worked out at 2.2; the Average of the Light/Dark ratio, Dox 75 ng/mL came out at 17; the Light/Dark, Dox 0 ng/mL turned out to be 3.1; the Light/Dark, Dox 75 ng/mL came out at 3.1. Besides, the Ub-ELuc luciferase, Dark, Dox 0 ng/mL worked out at 0.2 relative; the Ub-ELuc luciferase, Dark, Dox 75 ng/mL came out at 0.2 relative; the Ub-ELuc luciferase, Light, Dox 0 ng/mL was 0.5 relative; the Ub-ELuc luciferase, Light, Dox 75 ng/mL came out at 0.7 relative.

B6: the Average of the Light/Dark ratio, Dox 0 ng/mL was found to be 1.4; the Average of the Light/Dark ratio, Dox 75 ng/mL is 31.6; the Light/Dark, Dox 0 ng/mL was 1.1; the Light/Dark, Dox 75 ng/mL was found to be 38.4. Moreover, the Ub-ELuc luciferase, Dark, Dox 0 ng/mL was 0.3 relative; the Ub-ELuc luciferase, Dark, Dox 75 ng/mL was determined as 0.3 relative; the Ub-ELuc luciferase, Light, Dox 0 ng/mL is 0.3 relative; the Ub-ELuc luciferase, Light, Dox 75 ng/mL was found to be 12.7 relative.

In the case of B7, the Average of the Light/Dark ratio, Dox 0 ng/mL was 1.3; the Average of the Light/Dark ratio, Dox 0 ng/mL, 36 h light was 9.6; the Average of the Light/Dark ratio, Dox 75 ng/mL came out at 32.8; the Average of the Light/Dark ratio, Dox 500 ng/mL, 36 h light was 959. Besides, the Light/Dark, Dox 0 ng/mL worked out at 1.1; the Light/Dark, Dox 0 ng/mL, 36 h light was 9.2; the Light/Dark, Dox 75 ng/mL was 42.7; the Light/Dark, Dox 500 ng/mL, 36 h light was determined as 412. For the same molecule, the Ub-ELuc luciferase, Dark, Dox 0 ng/mL was determined as 0.2 relative; the Ub-ELuc luciferase, Dark, Dox 0 ng/mL, 36 h light was determined as 3.6 relative; the Ub-ELuc luciferase, Dark, Dox 75 ng/mL was 1.2 relative; the Ub-ELuc luciferase, Dark, Dox 500 ng/mL, 36 h light was 22.8 relative. For the same molecule, the Ub-ELuc luciferase, Light, Dox 0 ng/mL came to 0.2 relative; the Ub-ELuc luciferase, Light, Dox 0 ng/mL, 36 h light turned out to be 25.3 relative; the Ub-ELuc luciferase, Light, Dox 75 ng/mL is 51.7 relative; the Ub-ELuc luciferase, Light, Dox 500 ng/mL, 36 h light came out at 9140 relative.
